From the supplement of paper PMC10065799, “High-throughput profiling of sequence recognition by tyrosine kinases and SH2 domains using bacterial peptide display” (eLife, 2023)

These sequences were tested on c-Src (assay: phosphorylation enrichment, bacterial display (enrichment ratio); higher = better substrate or ligand; peptides without Tyr show the background).
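For SH2 binding enrichment of the phosphorylated peptide, bacterial display in this document: peptide library displayed on the E. coli surface as eCPX fusions, selected cells deep-sequenced, score is each peptide's frequency after selection divided by its frequency in the input.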
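For phosphorylation enrichment, bacterial display in this document: 11-residue human phosphosite peptides and single-mutation variants displayed on the E. coli surface, counted by deep sequencing, each peptide's frequency after selection divided by its frequency in the unselected input library; frequency after pTyr selection over input frequency; kinase dosed for 20-30% of maximal phosphorylation in three min.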

Row | Sequence | phosphorylation enrichment
1 | RSFLSYYTSHV [NEFL_Y442_P440L] | 0.561
2 | CKLFQYFLDHL [ATRX_Y1849_YF] | 0.524
3 | MFNPMYALFRT [HUWE1_Y4078] | 5.38
4 | QMIETYFDFRL [NSMF_Y506] | 8.42
5 | KNKNRCKNILP [PTPN11_Y279_Y279C] | 0.565
6 | KNDSNYVVKGN [KIT_Y823] | 0.346
7 | VVRSLYEDLED [VHL_Y185_I180V] | 0.544
8 | EVKAQYEDIAQ [KRT1_Y358] | 0.516
9 | DRPASYLEKVR [KRT13_Y118_L115P] | 0.362
10 | YAFQLYDLDRD [CHP2_Y123] | 3.19
11 | TTANRYLKVSD [MYOM2_Y871] | 0.486
12 | NQNIGYKLGHR [KCNN3_Y268] | 0.398
13 | LEIETYRRLRD [KRT12_Y429_L433R] | 0.672
14 | CPEARYNRSPI [PTAR1_Y42] | 0.399
15 | GAVGHYVLAER [HFE_Y342_M339V] | 0.503
16 | EKMWSYTKSAE [GRIA3_Y705_M706T] | 0.464
17 | SEDANYKRVSC [TTC3_Y1288] | 0.442
18 | GHNDVYILEHV [GRIN2A_Y1423_S1425L] | 2.94
19 | MTRDIYRASYY [ALK_Y1278_A1274T] | 1.66
20 | VDSIEYEVASQ [SLC7A7_Y7_T5I] | 0.466
21 | GEVLVYAEDPA [FLNA_Y319_V320A] | 0.553
22 | RARIRYAQEHD [NSD1_Y1987] | 0.636
23 | FQKDVYNIPPS [NEDD9_Y177_D178N_YF] | 2.21
24 | SFPHEYGSQEG [RBM10_Y48_R46H_YF] | 0.395
25 | LVVFEYMRHGD [NTRK1_Y591_M587V] | 0.374
26 | KNRDVSSSDFF [USP24_Y2134_Y2134S_YF] | 0.399
27 | GEETDYTPVWC [UROD_Y30] | 0.552
28 | YSDPSYVKQME [CDC5L_Y464] | 0.473
29 | NAGDYYDLYGG [PTPN11_Y63_T59A] | 6.14
30 | LPEVSYVKAID [GLRA1_Y307_K304E] | 0.126

What follows are sequences tested against Grb2 SH2 (UniProt P62993) (assay: SH2 binding enrichment of the phosphorylated peptide, bacterial display (enrichment ratio); higher = better substrate or ligand; peptides without Tyr show the background).
Sequence of Grb2 SH2 (P62993 whole entry, looked up): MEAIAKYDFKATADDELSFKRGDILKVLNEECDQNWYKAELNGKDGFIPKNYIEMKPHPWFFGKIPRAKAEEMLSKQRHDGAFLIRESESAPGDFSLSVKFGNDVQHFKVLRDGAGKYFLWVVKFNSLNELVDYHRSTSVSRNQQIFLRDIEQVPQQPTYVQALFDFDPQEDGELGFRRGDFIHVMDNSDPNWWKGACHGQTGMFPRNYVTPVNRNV

Row | Sequence | SH2 binding enrichment
31 | AFLGEYIPTVF [RAC2_Y32_P29L] | 0.922
32 | ESMLRYEVFGG [STOX1_Y607_YF] | 0.76
33 | QLQQAYQEAFE [YWHAZ_Y149_S145L] | 0.83
34 | RSFLSYYTSHV [NEFL_Y442_P440L] | 1.12
35 | CKLFQYFLDHL [ATRX_Y1849_YF] | 1.57
36 | MFNPMYALFRT [HUWE1_Y4078] | 1.09
37 | QMIETYFDFRL [NSMF_Y506] | 1.29
38 | KNKNRCKNILP [PTPN11_Y279_Y279C] | 0.861
39 | KNDSNYVVKGN [KIT_Y823] | 0.814
40 | VVRSLYEDLED [VHL_Y185_I180V] | 0.988
41 | EVKAQYEDIAQ [KRT1_Y358] | 1.15
42 | DRPASYLEKVR [KRT13_Y118_L115P] | 1.08
43 | YAFQLYDLDRD [CHP2_Y123] | 0.879
44 | TTANRYLKVSD [MYOM2_Y871] | 1.2
45 | NQNIGYKLGHR [KCNN3_Y268] | 1
46 | LEIETYRRLRD [KRT12_Y429_L433R] | 0.754
47 | CPEARYNRSPI [PTAR1_Y42] | 0.618

Row | Sequence | SH2 binding enrichment
48 | GAVGHYVLAER [HFE_Y342_M339V] | 0.634
49 | EKMWSYTKSAE [GRIA3_Y705_M706T] | 0.869
50 | SEDANYKRVSC [TTC3_Y1288] | 1.15
51 | GHNDVYILEHV [GRIN2A_Y1423_S1425L] | 0.717
52 | MTRDIYRASYY [ALK_Y1278_A1274T] | 0.876
53 | VDSIEYEVASQ [SLC7A7_Y7_T5I] | 0.793
54 | GEVLVYAEDPA [FLNA_Y319_V320A] | 0.874
55 | RARIRYAQEHD [NSD1_Y1987] | 0.663
56 | FQKDVYNIPPS [NEDD9_Y177_D178N_YF] | 1
57 | SFPHEYGSQEG [RBM10_Y48_R46H_YF] | 0.93
58 | LVVFEYMRHGD [NTRK1_Y591_M587V] | 1.2
59 | KNRDVSSSDFF [USP24_Y2134_Y2134S_YF] | 0.882
60 | GEETDYTPVWC [UROD_Y30] | 0.864
61 | YSDPSYVKQME [CDC5L_Y464] | 0.8
62 | NAGDYYDLYGG [PTPN11_Y63_T59A] | 0.89
63 | LPEVSYVKAID [GLRA1_Y307_K304E] | 0.862
64 | APQYTYTQGGQ [FLNA_Y1763_A1764T] | 1.54

Each sequence was assayed against SHP2-C SH2 in the same assay as above.

Row | Sequence | SH2 binding enrichment
65 | AFLGEYIPTVF [RAC2_Y32_P29L] | 1.01
66 | ESMLRYEVFGG [STOX1_Y607_YF] | 0.58
67 | QLQQAYQEAFE [YWHAZ_Y149_S145L] | 1.07
68 | RSFLSYYTSHV [NEFL_Y442_P440L] | 1.63
69 | CKLFQYFLDHL [ATRX_Y1849_YF] | 1.41
70 | MFNPMYALFRT [HUWE1_Y4078] | 1.1
71 | QMIETYFDFRL [NSMF_Y506] | 0.659
72 | KNKNRCKNILP [PTPN11_Y279_Y279C] | 0.598
73 | KNDSNYVVKGN [KIT_Y823] | 0.659
74 | VVRSLYEDLED [VHL_Y185_I180V] | 0.981
75 | EVKAQYEDIAQ [KRT1_Y358] | 0.64
76 | DRPASYLEKVR [KRT13_Y118_L115P] | 1.03
77 | YAFQLYDLDRD [CHP2_Y123] | 2.55
78 | TTANRYLKVSD [MYOM2_Y871] | 0.731
79 | NQNIGYKLGHR [KCNN3_Y268] | 0.782
80 | LEIETYRRLRD [KRT12_Y429_L433R] | 0.725
81 | CPEARYNRSPI [PTAR1_Y42] | 0.483

Row | Sequence | SH2 binding enrichment
82 | GAVGHYVLAER [HFE_Y342_M339V] | 0.851
83 | EKMWSYTKSAE [GRIA3_Y705_M706T] | 0.937
84 | SEDANYKRVSC [TTC3_Y1288] | 0.646
85 | GHNDVYILEHV [GRIN2A_Y1423_S1425L] | 0.755
86 | MTRDIYRASYY [ALK_Y1278_A1274T] | 0.704
87 | VDSIEYEVASQ [SLC7A7_Y7_T5I] | 0.741
88 | GEVLVYAEDPA [FLNA_Y319_V320A] | 1
89 | RARIRYAQEHD [NSD1_Y1987] | 0.536
90 | FQKDVYNIPPS [NEDD9_Y177_D178N_YF] | 0.913
91 | SFPHEYGSQEG [RBM10_Y48_R46H_YF] | 0.623
92 | LVVFEYMRHGD [NTRK1_Y591_M587V] | 1.35
93 | KNRDVSSSDFF [USP24_Y2134_Y2134S_YF] | 0.635
94 | GEETDYTPVWC [UROD_Y30] | 0.748
95 | YSDPSYVKQME [CDC5L_Y464] | 0.608
96 | NAGDYYDLYGG [PTPN11_Y63_T59A] | 0.595
97 | LPEVSYVKAID [GLRA1_Y307_K304E] | 0.783
98 | APQYTYTQGGQ [FLNA_Y1763_A1764T] | 0.799

The sequences below were run against c-Src SH2 in the same assay as above.

Row | Sequence | SH2 binding enrichment
99 | AFLGEYIPTVF [RAC2_Y32_P29L] | 0.658
100 | ESMLRYEVFGG [STOX1_Y607_YF] | 3.51
101 | QLQQAYQEAFE [YWHAZ_Y149_S145L] | 2.03
102 | RSFLSYYTSHV [NEFL_Y442_P440L] | 1.66
103 | CKLFQYFLDHL [ATRX_Y1849_YF] | 1.34
104 | MFNPMYALFRT [HUWE1_Y4078] | 0.811
105 | QMIETYFDFRL [NSMF_Y506] | 0.384
106 | KNKNRCKNILP [PTPN11_Y279_Y279C] | 0.892
107 | KNDSNYVVKGN [KIT_Y823] | 0.546
108 | VVRSLYEDLED [VHL_Y185_I180V] | 10.1
109 | EVKAQYEDIAQ [KRT1_Y358] | 11.6
110 | DRPASYLEKVR [KRT13_Y118_L115P] | 0.579
111 | YAFQLYDLDRD [CHP2_Y123] | 1.58
112 | TTANRYLKVSD [MYOM2_Y871] | 0.643
113 | NQNIGYKLGHR [KCNN3_Y268] | 0.481
114 | LEIETYRRLRD [KRT12_Y429_L433R] | 0.471
115 | CPEARYNRSPI [PTAR1_Y42] | 0.522

Row | Sequence | SH2 binding enrichment
116 | GAVGHYVLAER [HFE_Y342_M339V] | 2.88
117 | EKMWSYTKSAE [GRIA3_Y705_M706T] | 0.473
118 | SEDANYKRVSC [TTC3_Y1288] | 0.594
119 | GHNDVYILEHV [GRIN2A_Y1423_S1425L] | 0.48
120 | MTRDIYRASYY [ALK_Y1278_A1274T] | 0.786
121 | VDSIEYEVASQ [SLC7A7_Y7_T5I] | 0.452
122 | GEVLVYAEDPA [FLNA_Y319_V320A] | 0.549
123 | RARIRYAQEHD [NSD1_Y1987] | 0.572
124 | FQKDVYNIPPS [NEDD9_Y177_D178N_YF] | 0.479
125 | SFPHEYGSQEG [RBM10_Y48_R46H_YF] | 0.643
126 | LVVFEYMRHGD [NTRK1_Y591_M587V] | 0.725
127 | KNRDVSSSDFF [USP24_Y2134_Y2134S_YF] | 0.424
128 | GEETDYTPVWC [UROD_Y30] | 0.687
129 | YSDPSYVKQME [CDC5L_Y464] | 1.05
130 | NAGDYYDLYGG [PTPN11_Y63_T59A] | 0.633
131 | LPEVSYVKAID [GLRA1_Y307_K304E] | 0.437
132 | APQYTYTQGGQ [FLNA_Y1763_A1764T] | 1.84
